Test results as given in PMC9478924 (The Journal of Biological Chemistry, 2022).
Like-named read-outs stand apart in the source and are kept apart here.

Key:
Experiment in all cases: SPR
EVA-P974 [1] = target: T1, EVA-P974 (UniProt A0A023FDY8 22-118, biotin on the Avi-tag (Bir-A ligase))
T1 sequence (looked up): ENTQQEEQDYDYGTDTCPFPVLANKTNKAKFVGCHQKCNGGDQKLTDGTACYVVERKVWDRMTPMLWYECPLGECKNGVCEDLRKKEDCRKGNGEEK

EVA-4 = target: T2, EVA-4 (UniProt P0C8E9 24-127, biotin on the Avi-tag (Bir-A ligase))
T2 sequence (looked up): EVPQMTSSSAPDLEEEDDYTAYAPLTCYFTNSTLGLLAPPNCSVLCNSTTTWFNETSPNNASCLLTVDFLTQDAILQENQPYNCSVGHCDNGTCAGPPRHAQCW

EVA-1 = target: T3, EVA-1 (UniProt P0C8E7 21-114, biotin on the Avi-tag (Bir-A ligase))
T3 sequence (looked up): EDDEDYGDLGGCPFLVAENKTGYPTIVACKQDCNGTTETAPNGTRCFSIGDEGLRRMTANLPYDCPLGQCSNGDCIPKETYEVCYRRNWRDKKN

EVA-P974 [2] = target: T1, EVA-P974; remark: listed apart in the source

| Binder | Kd (EVA-P974 [1]) [nM] | Kd (EVA-4) [nM] | Kd (EVA-1) [nM] | Kd (EVA-P974 [2]) [nM] |
| --- | --- | --- | --- | --- |
| CCL1 (ligand, human, UniProt P22362 24-96, looked up) KSMQVPFSRCCFSFAEQEIPLRAILCYRNTSSICSNEGLIFKLKRGKEACALDTVGWVQRHRKMLRHCPSKRK | 15 | 376 | – | – |
| CCL3 (ligand, human, UniProt P10147 24-92, looked up) SLAADTPTACCFSYTSRQIPQNFIADYFETSSQCSKPGVIFLTKRSRQVCADPSEEWVQKYVSDLELSA | 0.6 | 0.2 | 0.21 | – |
| CCL5 (ligand, human, UniProt P13501 24-91, looked up) SPYSSDTTPCCFAYIARPLPRAHIKEYFYTSGKCSNPAVVFVTRKNRQVCANPEKKWVREYINSLEMS | – | 6.1 | – | – |
| CCL7 (ligand) not shown | 4.4 | 0.8 | – | – |
| CCL8 (ligand, human, UniProt P80075 24-99, looked up) QPDSVSIPITCCFNVINRKIPIQRLESYTRITNIQCPKEAVIFKTKRGKEVCADPKERWVRDSMKHLDQIFQNLKP | 0.03 | 0.4 | – | < 0.1 |
| CCL11 (ligand) not shown | 0.3 | 20 | – | – |
| CCL14 (ligand, human, UniProt Q16627 20-93, looked up) TKTESSSRGPYHPSECCFTYTTYKIPRQRIMDYYETNSQCSKPGIVFITKRGHSVCTNPSDKWVQDYIKDMKEN | 1.8 | 1.1 | 92 | – |
| CCL15 (ligand, human, UniProt Q16663 22-113, looked up) QFTNDAETELMMSKLPLENPVVLNSFHFAADCCTSYISQSIPCSLMKSYFETSSECSKPGVIFLTKKGRQVCAKPSGPGVQDCMKKLKPYSI | – | 240 | – | – |
| CCL16 (ligand, human, UniProt O15467 24-120, looked up) QPKVPEWVNTPSTCCLKYYEKVLPRRLVVGYRKALNCHLPAIIFVTKRNREVCTNPNDDWVQEYIKDPNLPLLPTRNLSTVKIITAKNGQPQLLNSQ | 0.1 | 4.1 | – | < 0.1 |
| CCL17 (ligand, human, UniProt Q92583 24-94, looked up) ARGTNVGRECCLEYFKGAIPLRKLKTWYQTSEDCSRDAIVFVTVQGRAICSDPNNKRVKNAVKYLQSLERS | 23 | 283 | – | – |
| CCL18 (ligand, human, UniProt P55774 21-89, looked up) AQVGTNKELCCLVYTSWQIPQKFIVDYSETSPQCPKPGVILLTKRGRQICADPNKKWVQKYISDLKLNA | 0.6 | 0.4 | 192 | – |
| CCL22 (ligand, human, UniProt O00626 25-93, looked up) GPYGANMEDSVCCRDYVRYRLPLRVVKHFYWTSDSCPRPGVVLLTFRDKEICADPRVPWVKMILNKLSQ | 1.8 | 8.5 | – | – |
| CCL23 (ligand, human, UniProt P55773 22-120, looked up) RVTKDAETEFMMSKLPLENPVLLDRFHATSADCCISYTPRSIPCSLLESYFETNSECSKPGVIFLTKKGRRFCANPSDKQVQVCMRMLKLDTRIKTRKN | – | 7.4 | – | – |
| CCL24 (ligand, human, UniProt O00175 27-119, looked up) VVIPSPCCMFFVSKRIPENRVVSYQLSSRSTCLKAGVIFTTKKGQQFCGDPKQEWVQRYMKNLDAKQKKASPRARAVAVKGPVQRYPGNQTTC | – | 55 | – | – |
| CCL4 (ligand, human, UniProt P13236 24-92, looked up) APMGSDPPTACCFSYTARKLPRNFVVDYYETSSLCSQPAVVFQTKRSKQVCADPSESWVQEYVYDLELN | 1.8 | – | 60.7 | – |
| CCL13 (ligand) not shown | 0.5 | – | – | – |
